Among the data in paper PMC2494536 (Cell, 2008) are Kd values, retold here.

Like-named read-outs stand apart in the source and are kept apart here.

B1: kinase domain of Csk, residues 187-450 (domain or fragment, UniProt P41240 187-450, looked up)
chain: GWALNMKELKLLQTIGKGEFGDVMLGDYRGNKVAVKCIKNDATAQAFLAEASVMTQLRHSNLVQLLGVIVEEKGGLYIVTEYMAKGSLVDYLRSRGRSVLGGDCLLKFSLDVCEAMEYLEGNNFVHRDLAARNVLVSEDNVAKVSDFGLTKEASSTQDTGKLPVKWTAPEALREKKFSTKSDVWSFGILLWEIYSFGRVPYPRIPLKDVVPRVEKGYKMDAPDGCPPAVYEVMKNCWHLDAAMRPSFLQLREQLEHIKTHELHL
B2: kinase domain of wildtype chicken c-Src, residues 251-533 (domain or fragment, UniProt P00523 251-533, looked up)
chain: QTQGLAKDAWEIPRESLRLEVKLGQGCFGEVWMGTWNGTTRVAIKTLKPGTMSPEAFLQEAQVMKKLRHEKLVQLYAVVSEEPIYIVTEYMSKGSLLDFLKGEMGKYLRLPQLVDMAAQIASGMAYVERMNYVHRDLRAANILVGENLVCKVADFGLARLIEDNEYTARQGAKFPIKWTAPEAALYGRFTIKSDVWSFGILLTELTTKGRVPYPGMVNREVLDQVERGYRMPCPPECPESLHDLMCQCWRKDPEERPTFEYLQAFLEDYFTSTEPQYQPGENL

Common to all, as to assay: SPR
Experiment [1] concerns the target B2.
In experiment [2] the target is T1, full-length Csk (C-terminal Src Kinase), residues 1-450 (UniProt P41240 1-450).
The target of experiment [3] is T2, Csk construct lacking the SH3 domain (SH2 and kinase domains), residues 68-450 (UniProt P41240 68-450).
In experiment [4] the target is T1, full-length Csk (C-terminal Src …). The source holds these as a separate data set.
Experiment [5] concerns the target T2, Csk construct lacking the SH3 domain …. This is another data set of the same source.

As a reminder, the Kd is the equilibrium constant for the complex coming apart. High values mean lower affinity, low ones higher affinity.

The molecule B1 gave a Kd in experiment [1] of approximately 70 µM.

Regarding B2, the Kd was approximately 4 µM in experiment [2], approximately 4 µM in experiment [3], approximately 30 µM in experiment [4] and approximately 30 µM in experiment [5].
